Laboratory results from patent publication US12006368 (SURROZEN OPERATING, dated 2024).

Columns and labels:
[1] = molecular target: Fzd2 cysteine rich domain (CRD), C-terminally biotinylated (human, UniProt Q14332 24-155); assay: BLI
Description: (§1) Binding kinetics of antibody fragments to a variety of Fzd cysteine rich domain (CRD) protein targets (Fzd1, Fzd2, Fzd3, Fzd4, Fzd5, Fzd6, Fzd7, Fzd8, Fzd9 and/or Fzd10 CRDs) was determined by bio-layer interferometry (BLI) using Octet Red 96 (PALL ForteBio, Fremont, CA) instruments at 30° C., 1000 rpm with streptavidin (SA) biosensors. C-terminal biotinylated Fzd CRD recombinant protein was diluted to 20 nM in the running buffer (PBS, 0.05% Tween-20, 0.5% BSA, pH 7.2) and captured to the SA biosensor until coupling length reached 0.2 nm. Following capture of the Fzd CRD, the SA biosensor with captured biotinylated-Fzd CRD was dipped into wells containing the relevant antibody fragment at […] (0, 1.37, 4.12, 12.4, 37, 111.1, 333.3, 1000 nM) in running buffer, plus a well with only running buffer as a reference channel. […] was determined by global fitting, 1:1 binding model according to manufacturer recommended settings.
(§2) Table 1B provides clone IDs, the sequence identifier number of the antibody heavy chain fragment and/or light chain fragment, if present, for illustrative clones. In certain embodiments, the Fzd binding domain is an Fab or was derived from an Fab, so the heavy chain of Table 1B includes VH and CH1 sequence, but not CH2 or CH3 sequences. In certain embodiments, the Fzd binding domain is a VHH or sdAb® or was derived from a VHH or sdAb, so Table 1B includes the VHH domain. […] The Kd values were determined by BLI as described above. Blank entries denote that the binding to the specific Fzd receptor has not yet been determined. The entry of "n.b." indicates no binding.

[2] = molecular target: Fzd1 cysteine rich domain (CRD), C-terminally biotinylated (human, UniProt Q9UP38 101-230); assay: BLI
Description: as §1, §2

B1: 004S-F10 (Fab, V domains shown)
VH: EVQLVESGGGLVQPGGSLRLSCAASGFTFSDHYMSWVRQAPGKGLEWVALVGYDGSQQFYGESVKGRFTISRDNSKNTLYLQMNSLRAEDTAVYYCNTGIPMLYWGQGTLVTVSS
VL: not shown
[1]
  binding result: no binding (tested: 1000 nM)
[2]
  binding result: no binding (tested: 1000 nM)

B2: 014S-G02 (Fab, V domains shown)
VH: QVQLVQSGAEVKKPGASVKVSCKASGYTFTSYYMNWVRQAPGQGLEWMGIISPSGGSTSYAQKFQGRVTMTRDTSTSTVYMELSSLRSEDTAVYYCARWGDYGDLYYFDYWGQGTLVTVSS
VL: DIQMTQSPSSLSASVGDRVTITCRASQGISSALAWYQQKPGKAPKLLIYATSTLQSGVPSRFSGSGSGTDFTLTISSLQPEDFATYYCQQVNSYPPTFGQGTKLEIKR
[1]
  binding result: no binding (tested: 1000 nM)
[2]
  binding result: no binding (tested: 1000 nM)

B3: 005S-D08 (Fab, V domains shown)
VH: EVQLVESGGGLVQPGGSLRLSCAASGFAFSSHWMHWVRQAPGKGLEWVSAIDGSGGSTYYADSVKGRFTISRDNSKNTLYLQMNSLRAEDTAVYYCARDRQLGWAHWYFDLWGRGTLVTVSS
VL: not shown
[1]
  binding result: no binding (tested: 1000 nM)
[2]
  binding result: no binding (tested: 1000 nM)

B4: 004S-A12 (Fab, V domains shown)
VH: QVQLVQSGAEVKKPGASVKVSCKASGYTFTNNFMHWVRQAPGQGLEWMGRINPNSGGTNYAQKFQGRVTMTRDTSTSTVYMELSSLRSEDTAVYYCARGQGYSSGWYRGDAFDIWGQGTTVTVSS
VL: not shown
[1]
  binding result: no binding (tested: 1000 nM)
[2]
  binding result: no binding (tested: 1000 nM)

B5: 005S-B11 (Fab, V domains shown)
VH: QVQLVQSGAEVKKPGASVKVSCKASGYTFTSYDINWVRQAPGQGLEWMGGFDPEDGETIYAQKFQGRVTMTRDTSTSTVYMELSSLRSEDTAVYYCAKAGDWGLYGMDVWGQGTMVTVSS
VL: DIQMTQSPSSLSASVGDRVTITCRASQSISRWLAWYQQKPGKAPKLLIYAASSLQSGVPSRFSGSGSGTDFTLTISSLQPEDFATYYCQQTNTFPFTFGPGTKVDIKR
[1]
  binding result: no binding (tested: 1000 nM)
[2]
  binding result: no binding (tested: 1000 nM)

B6: 014S-B04 (Fab, V domains shown)
VH: QVQLVQSGAEVKKPGASVKVSCKASGYIFTDYYMHWVRQAPGQGLEWMGWMNPNSGNTGYAQKFQGRVTMTRDTSTSTVYMELSSLRSEDTAVYYCARGGSRYDFWSGHWYFDLWGRGTLVTVSS
VL: DIQMTQSPSSLSASVGDRVTITCRASQGISNYLAWYQQKPGKAPKLLIYAASSLQSGVPSRFSGSGSGTDFTLTISSLQPEDFATYYCQQSYSTPFTFGQGTKVEIKR
[1]
  binding result: no binding (tested: 1000 nM)
[2]
  binding result: no binding (tested: 1000 nM)

B7: 005S-B07 (Fab, V domains shown)
VH: QVQLVQSGAEVKKPGASVKVSCKASGFTFTSSAVQWVRQAPGQGLEWMGWMNPNSGNTGYAQKFQGRVTMTRDTSTSTVYMELSSLRSEDTAVYYCARGRGQQWLTGYYGMDVWGQGTTVTVSS
VL: DIQMTQSPSSLSASVGDRVTITCRASQGISSALAWYQQKPGKAPKLLIYGASTLQSGVPSRFSGSGSGTDFTLTISSLQPEDFATYYCLQDYNYPFTFGPGTKVDIKR
[1]
  binding result: no binding (tested: 1000 nM)
[2]
  binding result: no binding (tested: 1000 nM)

B8: 014S-A07 (Fab, V domains shown)
VH: EVQLVESGGGLVKPGGSLRLSCAASGFTFSNAQMSWVRQAPGKGLEWVSAIGTGGGTYYADSVKGRFTISRDDSKNTLYLQMNSLKTEDTAVYYCAREGSYYDWYFDLWGRGTLVTVSS
VL: EIVLTQSPATLSVSPGERATLSCRASQNIGSRLAWYQQKPGQAPRLLIYGASNRASGIPARFSGSGSGTEFTLTISSLQSEDFAVYYCQQYNHWPPLFTFGPGTKVDIKR
[1]
  binding result: no binding (tested: 1000 nM)
[2]
  binding result: no binding (tested: 1000 nM)

B9: 005S-E09 (Fab, V domains shown)
VH: EVQLVQSGGGLVQPGGSLRLSCAASGFNLRRYNMNWVRQAPGKGLEWVSRISNSGSLVYYADSVKGRFTISRDNSKNTLYLQMNSLRAEDTAVYYCARDADSSGYYRYDAFDIWGQGTMVTVSS
VL: EIVLTQSPATLSVSPGERATLSCRASQSVSSNLAWYQQKPGQAPRLLIYDASNRATGIPARFSGSGSGTEFTLTISSLQSEDFAVYYCQQRNNWLYTFGQGTKVEIKR
[1]
  binding result: no binding (tested: 1000 nM)
[2]
  binding result: no binding (tested: 1000 nM)

B10: 005S-A07 (Fab, V domains shown)
VH: QVQLVQSGAEVKKPGSSVKVSCKASGFTFTGSAVQWVRQAPGQGLEWVGGILPIYGTTKYAQKFQGRVTITADESTSTAYMELSSLRSEDTAVYYCARGARLYGFDYWGQGTLVTVSS
VL: EIVLTQSPATLSVSPGERATLSCRASQSVSRNLAWYQQKPGQAPRLLIYGASTRATGIPARFSGSGSGTEFTLTISSLQSEDFAVYYCQQRSNWPITFGQGTRLEIKR
[1]
  binding result: no binding (tested: 1000 nM)
[2]
  binding result: no binding (tested: 1000 nM)

B11: 004S-A11 (Fab, V domains shown)
VH: QVQLVQSGAEVKKPGSSVKVSCKASGGTFSSYAISWVRQAPGQGLEWMGRIIPILGIANYAQKFQGRVTITADESTSTAYMELSSLRSEDTAVYYCARESVNNYYYMDVWGKGTTVTVSS
VL: not shown
[1]
  binding result: no binding (tested: 1000 nM)
[2]
  binding result: no binding (tested: 1000 nM)

B12: 005S-H10 (Fab, V domains shown)
VH: QVQLVQSGAEVKKPGSSVKVSCKASGGAFSTSSISWVRQAPGQGLEWVGRIIPVLGTANYAQKFQGRVTITADESTSTAYMELSSLRSEDTAVYYCAKGGWRSSFDPWGQGTLVTVSS
VL: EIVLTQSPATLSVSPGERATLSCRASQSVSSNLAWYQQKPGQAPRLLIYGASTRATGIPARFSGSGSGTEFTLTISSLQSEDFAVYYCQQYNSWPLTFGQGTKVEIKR
[1]
  binding result: no binding (tested: 1000 nM)
[2]
  binding result: no binding (tested: 1000 nM)

B13: 005S-D11 (Fab, V domains shown)
VH: QVQLVQSGAEVKKPGASVKVSCKASGYTFTNNFMHWVRQAPGQGLEWMGWINPNSGDTKFAPKFQGRVTMTRDTSTSTVYMELSSLRSEDTAVYYCAREANYDILTGYIRPDAFDIWGQGTTVTVSS
VL: EIVLTQSPATLSVSPGERATLSCRASQSLRSKLAWYQQKPGQAPRLLIYGASTRATGIPARFSGSGSGTEFTLTISSLQSEDFAVYYCQQYANSPWTFGPGTKVDIKR
[1]
  binding result: no binding (tested: 1000 nM)
[2]
  binding result: no binding (tested: 1000 nM)

B14: 014S-B06 (Fab, V domains shown)
VH: EVQLVQSGGGLVKPGGSLRLSCAASGFTFSSYSMNWVRQAPGKGLEWVSYIENDGSITTYADSVKGRFTISRDDSKNTLYLQMNSLKTEDTAVYYCARAPYYYGSGSLFRLDYWGQGTLVTVSS
VL: not shown
[1]
  binding result: no binding (tested: 1000 nM)
[2]
  binding result: no binding (tested: 1000 nM)

B15: 014S-G06 (Fab, V domains shown)
VH: EVQLVESGGGLVKPGGSLRLSCAASGFTFSSYAMHWVRQAPGKGLEWVSAIGAGGGTYYADSVKGRFTISRDDSKNTLYLQMNSLKTEDTAVYYCARDAYNWFDPWGQGTLVTVSS
VL: not shown
[1]
  binding result: no binding (tested: 1000 nM)
[2]
  binding result: no binding (tested: 1000 nM)

B16: 017S-B09 (VHH)
VHH: AVQQVESGGGLVQPGGSLRLSCAASGFTLDYYAISWFRQAPGKKRELVADITSGGSTNYADSVKGRFTISRDNAKNTIYLQMNSLKPEDTAVYFCNAVTYNGYTIWGQGTQVTVSS
[1]
  binding result: no binding (tested: 1000 nM)
[2]
  binding result: no binding (tested: 1000 nM)
